# Target: the molecule itself
# Experiment: analytical ultracentrifugation and chemical cross-linking
protein,measurement,value
"refolded NspA (recombinant mature NspA of Neisseria meningitidis strain H44/76, without the 19 amino acid signal peptide) (other) EGASGFYVQADAAHAKASSSLGSAKGFSPRISAGYRINDLRFAVDYTRYKNYKAPSTDFKLYSIGASAIYDFDTQSPVKPYLGARLSLNRASVDLGGSDSFSQTSIGLGVLTGVSYAVTPNVDLDAGYRYNYIGKVNTVKNVRSGELSAGVRVKF",binding result,no binding
